Laboratory results as given in article PMC10397247.
Like-named read-outs stand apart in the source and are kept apart here.

How the values were obtained:
Experiment in all cases: two-hybrid library CCmax;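 further: natural log of median RNA to DNA barcode read ratio; higher means stronger binding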
[1] = molecular target: T1, 4H687-AA; conditions: mean of both orientations
T1 chain: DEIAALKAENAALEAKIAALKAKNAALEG

[2] = molecular target: T2, 4H3782-AA; conditions: mean of both orientations
T2 chain: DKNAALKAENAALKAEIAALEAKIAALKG

[3] = molecular target: T3, 4H717-AA; conditions: mean of both orientations
T3 chain: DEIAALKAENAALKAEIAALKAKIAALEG

[4] = molecular target: T4, 4H780-AA; conditions: mean of both orientations
T4 chain: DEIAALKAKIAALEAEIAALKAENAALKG

[5] = molecular target: T5, 4H797-AA; conditions: mean of both orientations
T5 chain: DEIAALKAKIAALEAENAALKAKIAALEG

[6] = molecular target: T6, 4H953-AA; conditions: mean of both orientations
T6 chain: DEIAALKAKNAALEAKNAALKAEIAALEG

[7] = molecular target: T7, 4H3855-AA; conditions: mean of both orientations
T7 chain: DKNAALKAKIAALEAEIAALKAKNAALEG

[8] = molecular target: T8, 4H794-AA; conditions: mean of both orientations
T8 chain: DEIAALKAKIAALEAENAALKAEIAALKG

[9] = molecular target: T9, 4H3343-AA; conditions: mean of both orientations
T9 chain: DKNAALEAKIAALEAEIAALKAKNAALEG

[10] = molecular target: T10, 4H883-AA; conditions: mean of both orientations
T10 chain: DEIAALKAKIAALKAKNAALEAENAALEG

[11] = molecular target: T11, 4H605-AA; conditions: mean of both orientations
T11 chain: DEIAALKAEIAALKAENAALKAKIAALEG

[12] = molecular target: T12, 4H993-AA; conditions: mean of both orientations
T12 chain: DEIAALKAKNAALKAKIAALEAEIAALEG

[13] = molecular target: T13, 4H3606-AA; conditions: mean of both orientations
T13 chain: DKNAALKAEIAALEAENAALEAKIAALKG

[14] = molecular target: T14, 4H967-AA; conditions: mean of both orientations
T14 chain: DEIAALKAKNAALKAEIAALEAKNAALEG

[15] = molecular target: T15, 4H3655-AA; conditions: mean of both orientations
T15 chain: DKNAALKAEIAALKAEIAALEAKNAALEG

[16] = molecular target: T16, 4H335-AA; conditions: mean of both orientations
T16 chain: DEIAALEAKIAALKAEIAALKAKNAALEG

[17] = molecular target: T17, 4H3354-AA
T17 chain: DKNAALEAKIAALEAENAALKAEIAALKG

[18] = molecular target: T18, 4H906-AA; conditions: mean of both orientations
T18 chain: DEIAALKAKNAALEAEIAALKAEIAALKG

[19] = molecular target: T19, 4H568-AA; conditions: mean of both orientations
T19 chain: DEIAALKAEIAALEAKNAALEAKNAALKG

[20] = molecular target: T20, 4H454-AA; conditions: mean of both orientations
T20 chain: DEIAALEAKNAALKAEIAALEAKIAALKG

[21] = molecular target: T21, 4H918-AA; conditions: mean of both orientations
T21 chain: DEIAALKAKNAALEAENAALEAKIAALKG

[22] = molecular target: T22, 4H881-AA; conditions: mean of both orientations
T22 chain: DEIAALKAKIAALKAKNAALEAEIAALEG

[23] = molecular target: T23, 4H566-AA; conditions: mean of both orientations
T23 chain: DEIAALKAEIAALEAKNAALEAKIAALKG

[24] = molecular target: T24, 4H678-AA; conditions: mean of both orientations
T24 chain: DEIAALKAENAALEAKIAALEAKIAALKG

[25] = molecular target: T25, 4H3627-AA; conditions: mean of both orientations
T25 chain: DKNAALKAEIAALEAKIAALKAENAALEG

[26] = molecular target: T26, 4H3112-AA
T26 chain: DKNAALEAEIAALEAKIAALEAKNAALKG

[27] = molecular target: T27, 4H3427-AA; conditions: mean of both orientations
T27 chain: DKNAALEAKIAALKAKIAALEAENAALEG

[28] = molecular target: T28, 4H342-AA; conditions: mean of both orientations
T28 chain: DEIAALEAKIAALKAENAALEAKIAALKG

[29] = molecular target: T29, 4H3921-AA; conditions: mean of both orientations
T29 chain: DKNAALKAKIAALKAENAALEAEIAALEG

[30] = molecular target: T30, 4H429-AA; conditions: mean of both orientations
T30 chain: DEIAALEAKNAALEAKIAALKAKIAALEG

[31] = molecular target: T31, 4H48-AA; conditions: mean of both orientations
T31 chain: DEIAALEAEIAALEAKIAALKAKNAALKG

[32] = molecular target: T32, 4H4001-AA; conditions: mean of both orientations
T32 chain: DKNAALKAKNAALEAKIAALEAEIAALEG

[33] = molecular target: T33, 4H317-AA; conditions: mean of both orientations
T33 chain: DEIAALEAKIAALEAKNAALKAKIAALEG

[34] = molecular target: T34, 4H3844-AA; conditions: mean of both orientations
T34 chain: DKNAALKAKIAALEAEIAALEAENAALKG

[35] = molecular target: T35, 4H3438-AA
T35 chain: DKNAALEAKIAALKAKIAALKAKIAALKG

B1: 4H3112-AA (peptide)
chain: DKNAALEAEIAALEAKIAALEAKNAALKG
Which results are given for B1?
interaction score [1]: -0.855; interaction score [2]: -0.975; interaction score [3]: -1.33; interaction score [4]: -1.01; interaction score [5]: -1.25; interaction score [6]: -1.62; interaction score [7]: -0.622; interaction score [8]: -1.51; interaction score [9]: -1.15; interaction score [10]: 0.194; interaction score [11]: -1.38; interaction score [12]: -0.58; interaction score [13]: -0.965; interaction score [14]: -1.38; interaction score [15]: -0.414; interaction score [16]: 0.64; interaction score ([17]; mean of both orientations): -1.66; interaction score [18]: -1.29; interaction score [19]: -0.907; interaction score [20]: -0.722; interaction score [21]: -1.44; interaction score [22]: -0.621; interaction score [23]: -1.22; interaction score [24]: -1.37; interaction score [25]: 0.212; interaction score [26]: -0.157; interaction score [27]: 2.07; interaction score [28]: -0.739; interaction score [29]: -1.01; interaction score [30]: 0.94; interaction score [31]: 0.163; interaction score [32]: -1.09; interaction score [33]: -1.3; interaction score [34]: 0.837

B2: 4H3354-AA (peptide)
chain: DKNAALEAKIAALEAENAALKAEIAALKG
Which results are given for B2?
interaction score [35]: -0.709; interaction score [1]: -1.69; interaction score [2]: -1.79; interaction score [3]: -1.69; interaction score [5]: -0.991; interaction score [6]: -1.6; interaction score [7]: -1.85; interaction score [10]: -2; interaction score [14]: -1.42; interaction score [17]: 2.03; interaction score [19]: -1.54; interaction score [21]: -1.56; interaction score [27]: -1.79; interaction score [32]: -1.64
